According to publication PMC7338525, “Insights into the structure and function of Est3 from the Hansenula polymorpha telomerase”:

Target: T1, HpEst3 (Hansenula polymorpha, UniProt W1QJK4 1-175)
T1 sequence: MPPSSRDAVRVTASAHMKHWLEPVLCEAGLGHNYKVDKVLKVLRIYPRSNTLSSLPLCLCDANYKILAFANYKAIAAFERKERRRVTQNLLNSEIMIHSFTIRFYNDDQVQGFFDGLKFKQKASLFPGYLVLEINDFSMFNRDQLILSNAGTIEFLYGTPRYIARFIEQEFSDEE
Test: NMR titration (15N-HpEst3); Est3:DNA up to 1:5; non-specific binding, signal broadening without shift changes; NMR: 100 mM KCl, 20 mM potassium phosphate pH 6.5, 0.02% NaN3, 3 mM DTT, 25 C; EMSA: 20 mM potassium phosphate pH 6.5, 100 mM KCl, 3 mM DTT, 8% native PAGE
Conditions: protein: recombinant

GGGTGGCGGGGTGGCGGGGTGGCGGGGTGGCG (ssDNA) [ssDNA G4 (four telomeric repeats)]
binding result: binds
